# In paper PMC5704011, “Discovery of High-Affinity PDGF-VEGFR Interactions: Redefining RTK Dynamics” (Scientific Reports, 2017):
# B1: human recombinant PDGF-CC (ligand)
# chain: VVDLNLLTEEVRLYSCTPRNFSVSIREELKRTDTIFWPGCLLVKRCGGNCACCLHNCNECQCVPSKVTKKYHEVLQLRPKTGVRGLHKSLTDVALEHHEECDCVCRGSTGG
# modifications: disulfide-linked homodimer; limits not given, active growth factor domain after cleavage at Arg234 taken by convention
# B2: human recombinant PDGF-CC (ligand, UniProt Q9NRA1 235-345, looked up)
# chain: B1 chain
# notes: Platelet-derived growth factor C, human; Homodimer by its name; source: bought: R&D Systems (Cat. #1687-CC-025), human recombinant
# B3: human recombinant PDGF-BB (ligand, UniProt P01127 82-190, looked up)
# chain: SLGSLTIAEPAMIAECKTRTEVFEISRRLIDRTNANFLVWPPCVEVQRCSGCCNNRNVQCRPTQVQLRPVQVRKIEIVRKKPIFKKATVTLEDHLACKCETVAAARPVT
# notes: Platelet-derived growth factor subunit B, human; Homodimer of B chains by its name; source: bought: R&D Systems (Cat. #220-BB-050), human recombinant
# Tests used:
# Details in all cases: both partners purified
# [1] = target: T1, human recombinant PDGFRβ (human, UniProt P09619 33-1106); assay: SPR; BIAcore 3000, 25 °C, CM5 chip; receptor immobilised by amine coupling (~200-500 R.U.); ligand injected at 10, 20 and 40 nM, 30 uL/min, 10 min dissociation; HBS-EP pH 7.4 (10 mM HEPES, 3 mM EDTA, 150 mM NaCl, 0.005% TWEEN-20); angiopoietin-4 reference cell subtracted; global 1:1 Langmuir fit; χ2-to-Rmax > 1.0 or negative association curves taken as no true interaction
# T1 construct: platelet-derived growth factor receptor beta, human, recombinant; source: bought: R&D Systems
# T1 sequence (P09619 33-1106): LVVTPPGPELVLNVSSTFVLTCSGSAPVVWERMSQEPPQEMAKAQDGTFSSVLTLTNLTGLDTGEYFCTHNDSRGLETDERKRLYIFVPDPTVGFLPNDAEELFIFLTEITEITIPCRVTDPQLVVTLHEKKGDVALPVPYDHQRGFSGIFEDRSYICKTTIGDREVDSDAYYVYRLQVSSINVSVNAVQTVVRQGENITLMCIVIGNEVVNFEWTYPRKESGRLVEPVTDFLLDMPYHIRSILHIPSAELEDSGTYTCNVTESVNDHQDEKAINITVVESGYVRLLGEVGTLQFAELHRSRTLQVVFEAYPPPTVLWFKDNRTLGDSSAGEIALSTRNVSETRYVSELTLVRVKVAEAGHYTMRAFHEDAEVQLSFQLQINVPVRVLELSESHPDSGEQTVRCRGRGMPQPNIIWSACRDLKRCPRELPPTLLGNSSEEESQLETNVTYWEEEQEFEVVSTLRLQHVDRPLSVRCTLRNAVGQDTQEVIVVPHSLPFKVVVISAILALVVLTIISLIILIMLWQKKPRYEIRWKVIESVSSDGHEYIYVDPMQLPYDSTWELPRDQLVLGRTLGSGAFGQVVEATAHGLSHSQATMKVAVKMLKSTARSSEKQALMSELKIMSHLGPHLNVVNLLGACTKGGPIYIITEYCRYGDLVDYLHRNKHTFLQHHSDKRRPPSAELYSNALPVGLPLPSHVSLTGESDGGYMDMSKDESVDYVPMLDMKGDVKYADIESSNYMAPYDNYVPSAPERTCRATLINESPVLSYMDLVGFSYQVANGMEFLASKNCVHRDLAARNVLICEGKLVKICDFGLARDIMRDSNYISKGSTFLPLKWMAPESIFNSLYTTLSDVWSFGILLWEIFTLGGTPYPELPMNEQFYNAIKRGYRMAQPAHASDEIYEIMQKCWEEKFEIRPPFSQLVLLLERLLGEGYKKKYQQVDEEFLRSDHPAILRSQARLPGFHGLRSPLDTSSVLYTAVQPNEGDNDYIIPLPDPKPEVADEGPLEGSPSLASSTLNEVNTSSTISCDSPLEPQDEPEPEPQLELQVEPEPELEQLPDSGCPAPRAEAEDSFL
# [2] = target: T2, human recombinant PDGFRα (human, UniProt P16234 24-1089); assay: as above
# T2 construct: platelet-derived growth factor receptor alpha, human, recombinant; also called PDGFRa; source: bought: R&D Systems
# T2 sequence (P16234 24-1089): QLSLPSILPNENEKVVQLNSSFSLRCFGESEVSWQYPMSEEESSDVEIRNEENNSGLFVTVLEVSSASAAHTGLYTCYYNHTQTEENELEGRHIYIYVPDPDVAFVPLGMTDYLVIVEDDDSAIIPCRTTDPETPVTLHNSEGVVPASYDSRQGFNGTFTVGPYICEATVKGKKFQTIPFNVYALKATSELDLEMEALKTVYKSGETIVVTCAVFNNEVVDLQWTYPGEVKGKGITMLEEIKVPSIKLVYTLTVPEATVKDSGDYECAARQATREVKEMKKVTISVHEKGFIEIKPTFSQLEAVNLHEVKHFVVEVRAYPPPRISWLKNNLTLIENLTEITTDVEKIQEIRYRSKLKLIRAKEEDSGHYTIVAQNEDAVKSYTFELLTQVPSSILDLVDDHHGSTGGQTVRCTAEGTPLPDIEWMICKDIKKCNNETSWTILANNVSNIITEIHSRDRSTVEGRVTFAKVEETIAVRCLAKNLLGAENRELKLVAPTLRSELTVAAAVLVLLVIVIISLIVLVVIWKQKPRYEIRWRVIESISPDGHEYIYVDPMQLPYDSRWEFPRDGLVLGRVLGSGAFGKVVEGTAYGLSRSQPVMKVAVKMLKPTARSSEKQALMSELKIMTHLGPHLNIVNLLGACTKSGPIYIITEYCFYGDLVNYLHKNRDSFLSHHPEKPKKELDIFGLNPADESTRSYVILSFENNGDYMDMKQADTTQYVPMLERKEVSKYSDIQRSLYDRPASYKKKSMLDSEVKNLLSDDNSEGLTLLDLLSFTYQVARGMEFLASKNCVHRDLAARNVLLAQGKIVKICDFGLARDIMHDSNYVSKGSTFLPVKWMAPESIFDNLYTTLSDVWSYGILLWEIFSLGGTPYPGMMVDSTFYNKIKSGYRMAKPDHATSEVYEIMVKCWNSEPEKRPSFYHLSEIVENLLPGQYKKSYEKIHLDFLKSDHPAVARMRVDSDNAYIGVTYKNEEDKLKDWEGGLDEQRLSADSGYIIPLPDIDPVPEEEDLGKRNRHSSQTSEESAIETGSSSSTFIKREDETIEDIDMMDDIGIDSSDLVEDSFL
# [3] = target: T3, human recombinant PDGFRα (human, UniProt P16234 24-528); assay: SPR; BIAcore 3000, 25 °C, CM5 chip; receptor immobilised by amine coupling (~200-500 R.U.); ligand injected at 40, 20 and 10 nM in HBS-EP pH 7.4 (10 mM HEPES, 3 mM EDTA, 150 mM NaCl, 0.005% TWEEN-20); angiopoietin-4 reference cell subtracted; global 1:1 Langmuir fit; χ^2-to-Rmax < 1.0 taken as a true interaction
# T3 construct: Platelet-derived growth factor receptor alpha, human; also called PDGFRa; source: bought: R&D Systems (Cat #322-PR-050/CF), human recombinant
# T3 sequence (P16234 24-528): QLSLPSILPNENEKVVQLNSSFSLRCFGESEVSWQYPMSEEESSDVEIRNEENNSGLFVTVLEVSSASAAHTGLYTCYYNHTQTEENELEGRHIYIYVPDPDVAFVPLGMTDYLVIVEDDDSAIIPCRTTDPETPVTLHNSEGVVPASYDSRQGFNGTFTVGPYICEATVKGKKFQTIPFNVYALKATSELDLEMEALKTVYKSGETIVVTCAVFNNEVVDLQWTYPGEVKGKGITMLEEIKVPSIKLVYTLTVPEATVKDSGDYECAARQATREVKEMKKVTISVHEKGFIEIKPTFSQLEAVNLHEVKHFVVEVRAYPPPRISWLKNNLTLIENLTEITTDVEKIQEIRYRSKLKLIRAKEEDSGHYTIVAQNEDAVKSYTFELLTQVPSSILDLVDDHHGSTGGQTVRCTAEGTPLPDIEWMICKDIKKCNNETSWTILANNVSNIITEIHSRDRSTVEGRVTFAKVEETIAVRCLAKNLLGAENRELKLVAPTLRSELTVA
# [4] = target: T4, human recombinant VEGFR2 (human, UniProt P35968 20-764); assay: as above
# T4 construct: Vascular endothelial growth factor receptor 2 (KDR), human; source: bought: R&D Systems (Cat. #357-KD-050/CF), human recombinant
# T4 sequence (P35968 20-764): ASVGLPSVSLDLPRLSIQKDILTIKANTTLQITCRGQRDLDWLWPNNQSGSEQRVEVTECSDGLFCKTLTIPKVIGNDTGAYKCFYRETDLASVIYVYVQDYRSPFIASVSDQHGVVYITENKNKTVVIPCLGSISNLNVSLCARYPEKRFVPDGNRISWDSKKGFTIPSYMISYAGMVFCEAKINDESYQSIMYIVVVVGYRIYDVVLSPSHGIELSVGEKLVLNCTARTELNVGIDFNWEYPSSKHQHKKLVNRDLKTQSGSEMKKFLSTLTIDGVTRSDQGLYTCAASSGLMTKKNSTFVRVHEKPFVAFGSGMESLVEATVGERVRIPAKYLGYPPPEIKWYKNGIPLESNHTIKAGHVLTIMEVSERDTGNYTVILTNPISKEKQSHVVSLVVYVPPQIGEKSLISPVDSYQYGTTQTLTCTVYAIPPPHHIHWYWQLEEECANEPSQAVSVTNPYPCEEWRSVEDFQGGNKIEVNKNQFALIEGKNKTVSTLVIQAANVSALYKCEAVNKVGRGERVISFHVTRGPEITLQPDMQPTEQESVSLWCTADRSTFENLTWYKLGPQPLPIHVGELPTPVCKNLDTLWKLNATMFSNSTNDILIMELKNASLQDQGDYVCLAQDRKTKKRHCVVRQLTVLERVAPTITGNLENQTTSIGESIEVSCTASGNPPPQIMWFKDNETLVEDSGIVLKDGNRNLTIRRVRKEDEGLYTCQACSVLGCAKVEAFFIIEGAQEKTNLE
Binder,koff [1],kon [1],koff [2],kon [2],Kd [3],Kd [4]
B1,0.0014 s⁻¹,740000 M⁻¹ s⁻¹,0.0002 s⁻¹,5000 M⁻¹ s⁻¹,–,–
B2,–,–,–,–,3.4 nM,–
B3,–,–,–,–,420 nM,37 nM
